The record followed here is patent US20240390512A1 (Daiichi Sankyo, published 2024).

Test [1] has as its target T1, cynomolgus monkey CDH6, on cells (cynomolgus monkey, UniProt P55285 54-790 (human entry)).
T1 construct: Expressed from pcDNA3.1-cynoCDH6; also called cynoCDH6
T1 sequence: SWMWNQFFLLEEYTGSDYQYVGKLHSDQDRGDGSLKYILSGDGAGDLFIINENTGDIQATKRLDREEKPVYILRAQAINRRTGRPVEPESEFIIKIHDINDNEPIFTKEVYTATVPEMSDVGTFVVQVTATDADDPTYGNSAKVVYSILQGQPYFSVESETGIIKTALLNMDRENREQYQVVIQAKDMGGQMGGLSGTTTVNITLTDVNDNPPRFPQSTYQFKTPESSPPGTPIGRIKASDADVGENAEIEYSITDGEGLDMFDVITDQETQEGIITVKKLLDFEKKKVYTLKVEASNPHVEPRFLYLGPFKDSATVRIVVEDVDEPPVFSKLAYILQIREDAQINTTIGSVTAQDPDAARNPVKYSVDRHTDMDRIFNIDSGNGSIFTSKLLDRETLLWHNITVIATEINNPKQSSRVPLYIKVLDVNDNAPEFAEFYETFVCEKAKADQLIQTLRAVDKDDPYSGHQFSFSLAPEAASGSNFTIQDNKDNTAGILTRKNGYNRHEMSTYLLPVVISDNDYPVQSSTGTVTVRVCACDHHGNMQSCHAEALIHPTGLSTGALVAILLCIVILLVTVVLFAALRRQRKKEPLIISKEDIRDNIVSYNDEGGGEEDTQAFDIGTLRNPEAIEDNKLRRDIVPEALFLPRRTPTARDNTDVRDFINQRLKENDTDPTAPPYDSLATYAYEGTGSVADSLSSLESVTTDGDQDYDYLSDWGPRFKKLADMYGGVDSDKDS
The experiment in a line: Cell-ELISA and flow cytometry screening with hybridoma supernatants on transfected cells. (In general: In an ELISA, binding on a coated surface is turned into a signal by an enzyme label.)

Test [2] deals with T2, EC3 deletion mutant of human CDH6, on cells (human, UniProt P55285 54-790).
T2 construct: in p3×FLAG-CMV-9; also called EC3-deleted hCDH6
T2 sequence: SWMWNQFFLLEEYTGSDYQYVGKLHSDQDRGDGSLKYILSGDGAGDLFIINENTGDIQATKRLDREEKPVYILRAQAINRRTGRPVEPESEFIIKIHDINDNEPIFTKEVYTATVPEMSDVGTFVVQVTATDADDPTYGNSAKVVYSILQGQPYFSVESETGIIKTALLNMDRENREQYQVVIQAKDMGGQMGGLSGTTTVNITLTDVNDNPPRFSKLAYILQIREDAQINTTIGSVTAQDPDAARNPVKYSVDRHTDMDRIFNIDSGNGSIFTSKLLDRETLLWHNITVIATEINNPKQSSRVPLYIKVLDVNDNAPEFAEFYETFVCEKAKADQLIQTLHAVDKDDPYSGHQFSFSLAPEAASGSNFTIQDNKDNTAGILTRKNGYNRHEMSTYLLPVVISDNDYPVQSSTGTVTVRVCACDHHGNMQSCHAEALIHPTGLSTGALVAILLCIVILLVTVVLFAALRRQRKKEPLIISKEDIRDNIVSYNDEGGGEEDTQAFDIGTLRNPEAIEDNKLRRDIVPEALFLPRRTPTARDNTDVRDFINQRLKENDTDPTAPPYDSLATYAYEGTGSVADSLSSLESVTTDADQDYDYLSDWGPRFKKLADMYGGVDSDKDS
As to the kind of experiment: flow cytometry; 293α cells transfected with EC3-deleted hCDH6 (open line) against untransfected 293α cells (shaded); anti-rat IgG-FITC. In general terms: Flow cytometry measures light scatter and fluorescence of single cells or particles in a stream.

Test [3] deals with T3, human CDH6 (cadherin-6), full-length, on cells (human, UniProt P55285 54-790).
T3 construct: also called hCDH6; full-length hCDH6
T3 sequence: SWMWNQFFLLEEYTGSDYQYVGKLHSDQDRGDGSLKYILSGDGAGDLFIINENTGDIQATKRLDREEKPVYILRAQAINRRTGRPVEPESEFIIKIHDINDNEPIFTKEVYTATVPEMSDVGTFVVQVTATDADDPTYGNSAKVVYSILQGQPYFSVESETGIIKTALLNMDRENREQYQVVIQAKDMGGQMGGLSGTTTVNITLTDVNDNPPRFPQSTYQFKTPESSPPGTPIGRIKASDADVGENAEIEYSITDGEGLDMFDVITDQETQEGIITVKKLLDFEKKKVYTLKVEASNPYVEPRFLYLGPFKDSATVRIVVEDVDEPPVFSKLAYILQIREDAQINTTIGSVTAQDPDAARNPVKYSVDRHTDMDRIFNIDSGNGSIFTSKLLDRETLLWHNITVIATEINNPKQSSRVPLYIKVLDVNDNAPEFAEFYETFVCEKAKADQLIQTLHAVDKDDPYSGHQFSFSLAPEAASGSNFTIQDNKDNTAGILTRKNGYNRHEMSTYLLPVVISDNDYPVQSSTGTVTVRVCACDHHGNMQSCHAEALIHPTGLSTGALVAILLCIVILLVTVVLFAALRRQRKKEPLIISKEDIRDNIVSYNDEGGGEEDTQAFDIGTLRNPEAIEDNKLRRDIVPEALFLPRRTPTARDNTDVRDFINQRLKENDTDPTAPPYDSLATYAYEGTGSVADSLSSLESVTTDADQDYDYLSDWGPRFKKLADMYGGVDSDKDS
The experiment in a line: flow cytometry; hCDH6-transfected 293T cells (open line) against untransfected 293T cells (shaded); antibody 10 ng/mL; anti-rat IgG-FITC.

B1: rat anti-human CDH6 monoclonal antibody rG019 (antibody, rat IgG2b, V domains shown)
VH: QVQLQQSGAELVKPGSSVKISCKASGYTFTRNFMHWIKQQPGNGLEWIGWIYCGDGETEYNQKFNGKATLTADRSSSTAYMELSRLTSEDSAVYFCARGVYGGFAGGYFDFWGQGVMVTVSS
VL: DIQMTQSPSLLSASVGDRVTLNCKASQNIYKNLAWYQQKLGEGPKLLIYDANTLQTGIPSRFSGSGSGSDFTLTISSLQPEDVATYFCQQYYSGWAFGGVTNLELKRA
notes: Purified from hybridoma supernatant; also called rG019 antibody
Regarding B1, the figures for the binding result in test [1], in test [2] and in test [3] were “binds”, “no binding (tested: 20 nM)” and “binds”, respectively.

B2: rat anti-human CDH6 monoclonal antibody rG055 (antibody, rat IgG2b, V domains shown)
VH: EVQLQESGPGLVRPSQSLSLSCSVTDYSITSNYWGWIRRFPGNKMEWMGYITYSGYTSYNPSLQSRISITRDTSKNQFFLQLNSVTAEDTATYYCARSINHGGYSYVVDAWGPGASVTVSS
VL: DVQMTHSPSYLAASPGESVSISCKTSKNISNYLVWYQQKPGEAYKLLIYSGSTLQSGTPSRFSGSGSGTDFTLTIRSLEPEDFGLYFCQQYYEKPFTFGSGTKLEIKR
notes: Purified from hybridoma supernatant; also called rG055 antibody
Take B2: the results for the binding result in test [1], in test [2] and in test [3] were “binds”, “no binding (tested: 20 nM)” and “binds”, respectively.

B3: rat anti-human CDH6 monoclonal antibody rG061 (antibody, rat IgG2b, V domains shown)
VH: EVQLQESGPGLVKPSQSLSLTCSVTGYSITTYYWGWIRKFPGNKMEWMGYISYSGRTSYNPSLKSRMSITRDASKNQFFLQLNSVTTDDTATYYCARSPINHGGYWYFDFWGPGTMVTVSS
VL: DVQMTQSPSYLAASPGESVSISCKATKSISNYLAWYQQKPGEAYKVLIYSGSTLQSGTPSRFSGSGSGTDFTLTIRSLEPEDFGLYSCQQYYEKPLTFGSGTKLEIKR
notes: Purified from hybridoma supernatant; also called rG061 antibody
On to B3, for which the binding result in test [1] is “binds”; in test [2], “no binding (tested: 20 nM)”; in test [3] it was “binds”.

B4: rat anti-human CDH6 monoclonal antibody rG056 (antibody, rat IgG2b, V domains shown)
VH: EVQLQESGPGLVKPSQSLSLTCSVTDYSITTYFWGWIRKFPGNKMEWMGYMSYRGGTSYNPSLKSRISITRDTSKNQFFLQLNSVTTEDTATYYCARCPNYGGHSLVFDYWGQGVMVTVSS
VL: DVQMTQSPSSLAASPGESVSISCRATKSIGIYLAWYQQKPGKTFKLLIYSGSTLQSGTPSRFSGSGSGTDFTLTIRSLEPEDFGLYFCQQFYENPFTFGSGTKLEIRR
notes: Purified from hybridoma supernatant; also called rG056 antibody
In the case of B4, the binding result in test [1] is listed as “binds”; in test [2], “no binding (tested: 20 nM)”; in test [3], “binds”.
